# Reference: article PMC12104086, “Identification of a multiple DAMP scavenger mimicking the DAMP-binding site of TLR4 to ameliorate lethal sepsis” (Frontiers in Immunology, 2025)
# T1: recombinant human high mobility group box 1 (human, UniProt P09429 1-215)
# T1 construct: human HMGB1, recombinant, bought; see the vendor's sheet; also called rhHMGB1; HMGB1; source: bought: R&D System (Cat. No. 1690-HMB-050)
# T1 sequence (looked up): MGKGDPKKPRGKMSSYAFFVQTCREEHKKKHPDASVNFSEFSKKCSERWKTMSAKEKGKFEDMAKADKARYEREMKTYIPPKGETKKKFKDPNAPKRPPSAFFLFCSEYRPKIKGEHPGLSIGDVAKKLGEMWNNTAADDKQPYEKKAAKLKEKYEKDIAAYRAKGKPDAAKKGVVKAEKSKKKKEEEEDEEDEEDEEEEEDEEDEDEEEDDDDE
# T2: recombinant mouse cold-inducible RNA-binding protein (mouse, UniProt P60824 1-172)
# T2 construct: also called rmCIRP; eCIRP
# T2 sequence (looked up): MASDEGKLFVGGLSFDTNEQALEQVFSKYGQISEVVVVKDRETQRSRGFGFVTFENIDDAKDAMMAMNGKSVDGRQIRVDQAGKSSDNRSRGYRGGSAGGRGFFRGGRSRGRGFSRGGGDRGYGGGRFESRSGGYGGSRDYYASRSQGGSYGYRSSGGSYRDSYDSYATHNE
# B1: opsonic peptide 18 (peptide)
# peptide: GNFNSSNIMKTCLQNRGD
# notes: also called OP18; source: synthetic peptide (GenScript)
# Assays:
# [1] = target: T1, recombinant human high mobility group …; assay: SPR; OpenSPR (Nicoya); OP18 (10 µg/mL in 10 mM acetate pH 5) immobilised on channel 2, channel 1 as reference; analytes eCIRP 31.3-2,000 nM, HMGB1 10-450 nM, αvβ3 integrin 10-100 nM, histone H3 22.5-270 nM in HBST (10 mM HEPES, 150 mM NaCl, 0.005% P20, 5 mM EDTA, pH 7.4); 40 µL/min, 20°C; global fit 1:1; conditions: both partners purified
# [2] = target: T2, recombinant mouse cold-inducible …; assay: as above; conditions: both partners purified
binder,measurement,setting,value
B1,binding result,[1],binds
same,binding result,[2],binds
